# Data reported in paper PMC2935386, “Dissecting the Relation between a Nuclear Receptor and GATA: Binding Affinity Studies of Thyroid Hormone Receptor and GATA2 on TSHβ Promoter”.
# T1: TRβ1 DBD-LBD (TR DL, TRβ1ΔAB) (human, UniProt P10828 102-461)
# T1 sequence: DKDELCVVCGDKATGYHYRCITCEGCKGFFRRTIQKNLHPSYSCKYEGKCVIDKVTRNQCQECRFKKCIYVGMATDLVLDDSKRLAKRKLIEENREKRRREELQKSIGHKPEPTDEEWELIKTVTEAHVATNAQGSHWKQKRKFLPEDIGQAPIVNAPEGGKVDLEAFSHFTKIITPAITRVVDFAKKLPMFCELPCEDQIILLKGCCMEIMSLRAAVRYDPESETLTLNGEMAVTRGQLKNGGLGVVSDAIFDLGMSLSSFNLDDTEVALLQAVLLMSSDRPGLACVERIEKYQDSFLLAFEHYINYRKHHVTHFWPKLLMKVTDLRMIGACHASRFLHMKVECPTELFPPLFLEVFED
# T2: TRβ1 DBD (TRβ1ΔAB/EF) (human, UniProt P10828 102-198)
# T2 sequence: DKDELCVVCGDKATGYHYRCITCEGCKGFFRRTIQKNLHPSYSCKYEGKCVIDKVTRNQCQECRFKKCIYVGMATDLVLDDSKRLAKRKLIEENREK
# Columns and labels:
# [1] = target: T1, TRβ1 DBD-LBD (TR DL, TRβ1ΔAB); assay: fluorescence anisotropy; T3; Hill n 2±0.4; Fluorescence anisotropy: 10 nM DNA, 20 mM Hepes pH 8.0, 50 mM NaCl, 1 mM MgCl2, 3 mM DTT, 5% glycerol, 10°C; agarose gel 1.3% in 0.5x TBE; conditions: protein: recombinant; tags: His (pET28a); chain copies: 2; label: 5' fluorescein (FITC) on forward strand; blunt
# [2] = target: T1, TRβ1 DBD-LBD (TR DL, TRβ1ΔAB); assay: fluorescence anisotropy; no T3; Hill n 1±0.1; Fluorescence anisotropy: 10 nM DNA, 20 mM Hepes pH 8.0, 50 mM NaCl, 1 mM MgCl2, 3 mM DTT, 5% glycerol, 10°C; agarose gel 1.3% in 0.5x TBE; conditions: protein: recombinant; tags: His (pET28a); chain copies: 2; label: 5' fluorescein (FITC) on forward strand; blunt
# [3] = target: T1, TRβ1 DBD-LBD (TR DL, TRβ1ΔAB); assay: fluorescence anisotropy; no T3; Hill n 3.5±0.1; Fluorescence anisotropy: 10 nM DNA, 20 mM Hepes pH 8.0, 50 mM NaCl, 1 mM MgCl2, 3 mM DTT, 5% glycerol, 10°C; agarose gel 1.3% in 0.5x TBE; conditions: protein: recombinant; tags: His (pET28a); chain copies: 2; label: 5' fluorescein (FITC) on forward strand; blunt
# [4] = target: T1, TRβ1 DBD-LBD (TR DL, TRβ1ΔAB); assay: fluorescence anisotropy; no T3; up to 10000 nM; Fluorescence anisotropy: 10 nM DNA, 20 mM Hepes pH 8.0, 50 mM NaCl, 1 mM MgCl2, 3 mM DTT, 5% glycerol, 10°C; agarose gel 1.3% in 0.5x TBE; conditions: protein: recombinant; tags: His (pET28a); chain copies: 2; label: 5' fluorescein (FITC) on forward strand; blunt
# [5] = target: T3, GATA2-Zf (UniProt P23769 291-412); assay: fluorescence anisotropy; Hill n 3.1±0.4; Fluorescence anisotropy: 10 nM DNA, 20 mM Hepes pH 8.0, 50 mM NaCl, 1 mM MgCl2, 3 mM DTT, 5% glycerol, 10°C; agarose gel 1.3% in 0.5x TBE; conditions: protein: recombinant; tags: His, thrombin treated; label: 5' fluorescein (FITC) on forward strand; blunt
# T3 sequence (P23769 291-412): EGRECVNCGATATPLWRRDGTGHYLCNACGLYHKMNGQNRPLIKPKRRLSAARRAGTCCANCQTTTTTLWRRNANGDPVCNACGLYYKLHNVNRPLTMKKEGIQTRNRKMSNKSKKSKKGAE
# [6] = target: T2, TRβ1 DBD (TRβ1ΔAB/EF); assay: gel filtration + agarose EMSA; 100 uM protein; DNA label not stated; Fluorescence anisotropy: 10 nM DNA, 20 mM Hepes pH 8.0, 50 mM NaCl, 1 mM MgCl2, 3 mM DTT, 5% glycerol, 10°C; agarose gel 1.3% in 0.5x TBE; conditions: protein: recombinant; tags: His (pET28a); label: 5' fluorescein (FITC) on forward strand; blunt
# [7] = target: T3, GATA2-Zf; assay: fluorescence anisotropy; Hill n 1.3±0.4; Fluorescence anisotropy: 10 nM DNA, 20 mM Hepes pH 8.0, 50 mM NaCl, 1 mM MgCl2, 3 mM DTT, 5% glycerol, 10°C; agarose gel 1.3% in 0.5x TBE; conditions: protein: recombinant; tags: His, thrombin treated; label: 5' fluorescein (FITC) on forward strand; blunt
binder,measurement,setting,value
DR4 TRE (dsDNA) DNA 1: AGTTCAGGTCACAGGAGGTCAGAG DNA 2: CTCTGACCTCCTGTGACCTGAACT,Kd,[1],1980 ± 295 nM
same,Kd,[2],2040 ± 266 nM
TSH NRE (dsDNA) DNA 1: TGGGTCACCACAGCATCTGCTCACCAATGCAAAGT DNA 2: ACTTTGCATTGGTGAGCAGATGCTGTGGTGACCCA,Kd,[3],316 ± 29 nM
TSH GATA-RE (dsDNA) DNA 1: TCAATAGATGCTTTTCAGATAAGAA DNA 2: TTCTTATCTGAAAAGCATCTATTGA,binding result,[4],no binding
same,Kd,[5],689 ± 38.7 nM
same,binding result,[6],binds
GATA-RE (canonical) (dsDNA) DNA 1: CACTTGATAACAGAAAGTGATAACTCT DNA 2: AGAGTTATCACTTTCTGTTATCAAGTG,binding result,[4],no binding
same,Kd,[7],14.9 ± 1.5 nM
